From PMC12203367, “Shikimate Kinase-Like 1 Participates in an Ancient and Conserved Role Contributing to Chloroplast Biogenesis in Land Plants” (Molecular Biology and Evolution, 2025)

Substrate: O=C(O)C1=C[C@@H](O)[C@@H](O)[C@H](O)C1
Assay: purified protein
Type: biochemical, Marchantia polymorpha
Details: 2.5 mM ATP, 1 mM MgCl2, 50 mM Tris-HCl pH 7.5, 200 mM NaCl, 30 °C, shikimate 0-3 mM

B1: MpSK (Δ113MpSK) (Marchantia polymorpha) (protein)
chain: QYSLELQEDEELLKKKAALVVQQLAGSCIFLVGMMGSGKTTVGKHVSEALGYYFFDSDKLVEESRGKTVAEMFRYGREEEFRNAESEVLEQLSSMVRLVVATGGGAVVRPENWSYLRHGITVWLDVPVDSLAERVVAVGCHSRPLLGVQAHDSAYKQALERLTHILQERADFYASADAVVSVEELARKRGQDINSITPTMIAVQVLEEISKMLERGDRDPSLQY
notes: N-terminal 113 residues (predicted chloroplast transit peptide) removed; cloned from Tak-2 cDNA; pET28a-MOD, C-terminal His6 cleaved by TEV; E. coli BL21-CodonPlus
Km: 782.5 µM
kcat: 1.0 s⁻¹
